Substitutions are numbered along the chain they refer to. Where two headings read alike, the source gives them in different places.
T1: SCD1 released from the linker-cleaved SCD1-cyt b5-b5R fusion (mouse, UniProt P13516 1-355)
T1 sequence: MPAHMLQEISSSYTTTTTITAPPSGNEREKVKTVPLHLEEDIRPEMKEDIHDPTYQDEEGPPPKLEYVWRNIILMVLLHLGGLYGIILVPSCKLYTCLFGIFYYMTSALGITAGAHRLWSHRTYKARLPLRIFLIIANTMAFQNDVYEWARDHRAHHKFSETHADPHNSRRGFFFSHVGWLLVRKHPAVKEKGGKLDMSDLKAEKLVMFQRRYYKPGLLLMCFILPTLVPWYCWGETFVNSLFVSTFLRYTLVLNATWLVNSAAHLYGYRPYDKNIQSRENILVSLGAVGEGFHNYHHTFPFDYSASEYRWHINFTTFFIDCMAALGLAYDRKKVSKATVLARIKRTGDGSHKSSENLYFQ

T2: full-length b5R released from the linker-cleaved cyt b5-b5R fusion (mouse, UniProt Q9DCN2 1-301)
T2 sequence: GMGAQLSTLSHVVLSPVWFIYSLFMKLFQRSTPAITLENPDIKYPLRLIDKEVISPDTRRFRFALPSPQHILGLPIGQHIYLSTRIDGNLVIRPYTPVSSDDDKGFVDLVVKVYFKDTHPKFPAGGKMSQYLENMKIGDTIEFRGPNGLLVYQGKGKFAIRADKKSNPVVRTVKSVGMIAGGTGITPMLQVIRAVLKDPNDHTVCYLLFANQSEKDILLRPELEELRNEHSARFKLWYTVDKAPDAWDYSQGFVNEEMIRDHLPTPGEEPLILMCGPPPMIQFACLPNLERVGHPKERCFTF

B1: full-length cyt b5 released from the linker-cleaved SCD1-cyt b5-b5R fusion (natural protein, mouse)
chain: GMAGQSDKDVKYYTLEEIQKHKDSKSTWVILHHKVYDLTKFLEEHPGGEEVLREQAGGDATENFEDVGHSTDARELSKTYIIGELHPDDRSKIAKPSDTLITTVESNSSWWTNWVIPAISALAVALMYRLYMAEDENLYFQ
B2: full-length cyt b5 L121 Trp mutant released from the linker-cleaved cyt b5-b5R fusion (natural protein, mouse)
chain: MAGQSDKDVKYYTLEEIQKHKDSKSTWVILHHKVYDLTKFLEEHPGGEEVLREQAGGDATENFEDVGHSTDARELSKTYIIGELHPDDRSKIAKPSDTLITTVESNSSWWTNWVIPAISAWAVALMYRLYMAEDENLYFQ
B3: full-length cyt b5 A124 Trp mutant released from the linker-cleaved cyt b5-b5R fusion (natural protein, mouse)
chain: B2 chain with W121L, A124W
B4: full-length cyt b5 released from the linker-cleaved cyt b5-b5R fusion (natural protein, mouse)
chain: B2 chain with W121L
B5: full-length cyt b5 V123 Trp mutant released from the linker-cleaved cyt b5-b5R fusion (natural protein, mouse)
chain: B2 chain with W121L, V123W
B6: full-length b5R released from the linker-cleaved SCD1-cyt b5-b5R fusion (enzyme, mouse)
chain: T2 sequence

How the values were obtained:
Experiment in all cases: SEC
[1] = target: SCD1 released from the linker-cleaved SCD1-cyt b5 fusion (mouse)
[2] = target: B6
[3] = target: T1, SCD1 released from the linker-cleaved …
[4] = target: T2, full-length b5R released from the …
[5] = target: T2, full-length b5R released from the …; remark: listed apart in the source

Molecule: full-length cyt b5 M126A released from the linker-cleaved SCD1-cyt b5 fusion (from UniProt P56395 1-134) (natural protein)
- percent of cyt b5 dissociated from the complex [1]: 50%

Molecule: B1
- binding result [2]: binds
- binding result [3]: binds

Molecule: B2
- binding result [4]: binds

Molecule: B3
- binding result [4]: binds

Molecule: B4
- binding result [5]: binds

Molecule: B5
- binding result [4]: binds

Molecule: B6
- binding result [3]: binds

— publication doi:10.1101/2021.11.13.468331 (bioRxiv, 2021)
